Data published in patent US12630600B2 (MEDIMMUNE LIMITED, priority 2022, dated 2026).
Where “and” joins values, the source holds several entries; their conditions need not be identical. Equal values may be shown once. Read-outs that look alike come from different tables or passages of the source. Starred links: 1 amine or outer side, 2 acyl side, 3 side chain; linkers in the order of their positions; H or OH if unused. Non-standard residues stand in square brackets, D forms with d. Residues, ends and D or L forms follow the SMILES beside them. Groups on a side chain read outwards from the residue. Primed or numbered codes have the meaning given here. No end group written: not given here. *: point of attachment. β‑dimethylArg = (S)-2-amino-5-guanidino-3,3-dimethylpentanoic acid, CC(C)(CCNC(=N)N)[C@H](N[*:1])C(=O)[*:2]; C20 diacid = O=C(O)CCCCCCCCCCCCCCCCCCC(=O)*; C18 diacid = O=C(O)CCCCCCCCCCCCCCCCC(=O)*; Dip = N[C@H](C(=O)O)C(c1ccccc1)c1ccccc1; γGlu = O=C(O)[C@H](CCC(=O)[*:2])N[*:1]; Palmitoyl = CCCCCCCCCCCCCCCC(=O)*; αMeF = C[C@](N)(Cc1ccccc1)C(=O)O; Myristoyl = CCCCCCCCCCCCCC(=O)*; (PEG)2 = polyethylene glycol 2; PEG2′ = polyethylene glycol 2; AEEA = NCCOCCOCC(=O)O; Aib = CC(C)(N)C(=O)O

Tests used:
GLP-1R knockout mice = test: Glucose change in GLP-1R knockout mice; format: in vivo, mouse; details: GLP-1R KO mice, s.c., no somatostatin pretreatment
Method: (§1) They acclimated for a minimum of ˜1-2 weeks, and mice were sorted into groups (n=4-8/group) based on body weight. On day of study, mice were fasted briefly for 2 hrs prior to study start. In some studies, mice were pre-treated with octreotide (BaChem, 10 mg/kg) at 30 minutes prior to peptide injection. Glucose was measured via glucometer at various timepoints including −30 min (prior to octreotide when used in studies), 0 min (before peptide dose), 30, 60, 120, 180, 240, and 360 minutes. Since these studies are acute in nature, mice were re-used for multiple studies (no more than 3) and always allowed at least a minimum wash-out period of 1 week.

wildtype (WT) mice = test: Glucose change in wildtype mice; format: in vivo, mouse; details: s.c., no somatostatin pretreatment
Method: as §1, with “[…] and wildtype (WT) mice at 8-14 weeks of age were singly housed on standard chow diet (Envigo, 2918) and automatic water. They” for “They”

Male C57Bl/6 mice = test: Mouse acute food intake study; format: in vivo; details: s.c., food intake at 24 h vs vehicle
Method: Male C57Bl/6 mice obtained from Jackson Laboratories or Charles River at 8-9 weeks of age and were housed one per cage in BioDaq (Research Diets) cages. Mice were placed on Alpha Dri bedding, standard chow diet (Envigo, 2018) and given water pouches. Mice were allowed to acclimate for 1-2 weeks. Body weight was measured to ensure appropriate acclimation. After acclimation, mice were sham dosed a minimum of 2 times prior to initiation of food intake study. On study day, mice were placed in clean cage bottoms, weighed, and fasted for 6-8 hours. Mice were sorted into groups based on average 24-hour food intake data and body weight. 1-2 hours prior to lights out, mice were dosed subcutaneously with one vehicle or test peptide dissolved in an appropriate vehicle at 5 mL/kg. Mice were left undisturbed and allowed access to food and water for 48 hours. Automated food intake was monitored in the BioDaq system was monitored during this time. Discrete food intake data was exported into MS Excel from which cumulative food intake data was generated and analyzed.

[1] = target: T1, Semaglutide (synthetic construct)
T1 sequence (peptide, Aib at 2; X20=Lys[O2Oc-O2Oc-γE-C18diacid]; C-terminal acid): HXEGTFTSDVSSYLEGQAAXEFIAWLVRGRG

[2] = target: T2, human GLP-1 receptor (hGLP-1R) (Homo sapiens, UniProt P43220); test: cAMP production (HTRF) in CHO cells expressing human GLP-1 receptor; format: cell-based; details: Table 8; % GLP-1R activity relative to GLP-1 / % GlucR activity relative to glucagon
T2 construct: expressed in transfected cells; host or cells: CHO
T2 sequence (P43220 24-463): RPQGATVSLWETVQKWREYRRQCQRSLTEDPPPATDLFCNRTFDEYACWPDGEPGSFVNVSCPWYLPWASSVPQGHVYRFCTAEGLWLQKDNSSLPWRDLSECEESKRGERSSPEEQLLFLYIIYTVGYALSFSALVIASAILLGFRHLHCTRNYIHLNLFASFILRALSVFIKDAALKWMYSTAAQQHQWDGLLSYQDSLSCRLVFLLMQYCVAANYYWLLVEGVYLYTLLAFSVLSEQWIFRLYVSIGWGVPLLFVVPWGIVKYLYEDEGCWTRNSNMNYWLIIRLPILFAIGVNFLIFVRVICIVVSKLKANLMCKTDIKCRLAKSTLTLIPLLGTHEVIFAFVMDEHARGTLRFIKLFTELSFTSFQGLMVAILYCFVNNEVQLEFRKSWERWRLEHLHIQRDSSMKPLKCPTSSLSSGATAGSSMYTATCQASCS

[3] = target: GLP-1R of the mouse (present in wildtype mice, absent in GLP-1R knockout mice) (mouse, UniProt O35659); test: cell-based or functional assay
human glucagon receptor = human glucagon receptor (human, UniProt P47871); test: cell-based or functional assay
human GLP-1 receptor [4] = target: T3, human GLP-1 receptor (human, UniProt P43220); test: cell-based or functional assay
human GLP-1 receptor [5] = target: T3, human GLP-1 receptor; test: cell-based or functional assay; remark: listed apart in the source

With “H-Aib-Q-G-T-F-T-S-D-V-S-K-αMePhe-L-D-T-K-R-A-R-D-F-V-Q-W-L-L-E-Aib-G-acid [Peptide 195]” the “GLP-1R KO % glucose change −60 min” value (GLP-1R knockout mice; 10 nmol/kg) was 35.3%, the “GLP-1R KO % glucose change −60 min” value (GLP-1R knockout mice; 30 nmol/kg) was 48.0% and the “WT % glucose change 60 min” value (wildtype (WT) mice; 10 nmol/kg) was 1.4%. The “WT % glucose change 60 min” value (wildtype (WT) mice; 30 nmol/kg) was −17.0%, the “24 hr % Vehicle Food Intake” value (Male C57Bl/6 mice; dose 1 nmol/kg) was 102.1% and the “24 hr % Vehicle Food Intake” value (Male C57Bl/6 mice; dose 3 nmol/kg) was 84.0%. For the same molecule, the “24 hr % Vehicle Food Intake” value (Male C57Bl/6 mice; dose 10 nmol/kg) was 58.2% and 49.9%.

For `CC(C)C[C@H](NC(=O)[C@H](Cc1c[nH]c2ccccc12)NC(=O)[C@H](CCC(N)=O)NC(=O)[C@@H](NC(=O)[C@H](Cc1ccccc1)NC(=O)[C@H](CC(=O)O)NC(=O)[C@H](CCCNC(=N)N)NC(=O)[C@H](C)NC(=O)[C@H](CCCNC(=N)N)NC(=O)[C@H](CCCCNC(=O)COCCOCCNC(=O)COCCOCCNC(=O)CC[C@H](NC(=O)CCCCCCCCCCCCCCCCC(=O)O)C(=O)O)NC(=O)[C@@H](NC(=O)[C@H](CC(=O)O)NC(=O)[C@H](CC(C)C)NC(=O)[C@](C)(Cc1ccccc1)NC(=O)[C@H](CCCCN)NC(=O)[C@H](CO)NC(=O)[C@@H](NC(=O)[C@H](CC(=O)O)NC(=O)[C@H](CO)NC(=O)[C@@H](NC(=O)[C@H](Cc1ccccc1)NC(=O)[C@@H](NC(=O)CNC(=O)[C@H](CCC(N)=O)NC(=O)C(C)(C)NC(=O)[C@@H](N)Cc1c[nH]cn1)[C@@H](C)O)[C@@H](C)O)C(C)C)[C@@H](C)O)C(C)C)C(=O)N[C@@H](CC(C)C)C(=O)N[C@@H](CCC(=O)O)C(=O)NC(C)(C)C(=O)NCC(=O)O` [Peptide 188, H-Aib-Q-G-T-F-T-S-D-V-S-K-αMePhe-L-D-T-K-R-A-R-D-F-V-Q-W-L-L-E-Aib-G-acid], the “GLP-1R KO % glucose change −60 min” value (GLP-1R knockout mice; 10 nmol/kg) was 64%.

For “porcine pancreatic pepsin (from UniProt P00791) (enzyme)”, the % intact peptide over time (min), 30 (% intact peptide at 30 min) [1] was 14.

In the case of `CC[C@H](C)[C@H](NC(=O)[C@H](Cc1c[nH]c2ccccc12)NC(=O)[C@H](CCC(N)=O)NC(=O)[C@@H](NC(=O)[C@H](Cc1ccccc1)NC(=O)[C@H](CC(=O)O)NC(=O)[C@H](CCCCNC(=O)COCCOCCNC(=O)COCCOCCNC(=O)CC[C@H](NC(=O)CC[C@H](NC(=O)CCCCCCCCCCCCCCCCCCC(=O)O)C(=O)O)C(=O)O)NC(=O)[C@H](C)NC(=O)[C@H](C)NC(=O)[C@H](CCCNC(=N)N)NC(=O)[C@H](CO)NC(=O)[C@H](CC(=O)O)NC(=O)[C@H](CC(C)C)NC(=O)[C@H](Cc1ccc(O)cc1)NC(=O)[C@H](CCCCN)NC(=O)[C@H](CO)NC(=O)[C@@H](NC(=O)[C@H](CC(=O)O)NC(=O)[C@H](CO)NC(=O)[C@@H](NC(=O)[C@](C)(Cc1ccccc1)NC(=O)[C@H](CO)NC(=O)CNC(=O)[C@H](Cc1c[nH]cn1)NC(=O)C(C)(C)NC(=O)[C@@H](N)Cc1c[nH]cn1)[C@@H](C)O)C(C)C)C(C)C)C(=O)N[C@@H](C)C(=O)N[C@@H](CC(N)=O)C(=O)N[C@H](C(N)=O)[C@@H](C)O` [Peptide 289] (H-H[Aib]HGS[αMeF]TSDVSKYLDSRAAK([AEEA-AEEA-γGlu-γGlu-C20 diacid])DFVQWIANT-NH2; N-terminus assumed), the “GLP-1R KO % glucose change 120 min” value (GLP-1R knockout mice; 10 nmol/kg) is reported as 8.9%, the “GLP-1R KO % glucose change 120 min” value (GLP-1R knockout mice; 30 nmol/kg) is reported as 7.7% and the “WT % glucose change 120 min” value (wildtype (WT) mice; 10 nmol/kg) is reported as −8.5%.

For `CC[C@H](C)[C@H](NC(=O)C(C)(C)NC(=O)[C@H](CCCCNC(=O)COCCOCCNC(=O)COCCOCCNC(=O)CC[C@H](NC(=O)CC[C@H](NC(=O)CCCCCCCCCCCCCCCCCCC(=O)O)C(=O)O)C(=O)O)NC(=O)[C@@H](NC(=O)[C@](C)(Cc1ccccc1)NC(=O)[C@H](CC(=O)O)NC(=O)[C@H](CCC(N)=O)NC(=O)[C@H](C)NC(=O)[C@H](C)NC(=O)[C@H](CCCNC(=N)N)NC(=O)[C@H](CO)NC(=O)[C@H](CC(=O)O)NC(=O)[C@H](CC(C)C)NC(=O)[C@](C)(Cc1ccccc1)NC(=O)[C@H](CCCCN)NC(=O)[C@H](CO)NC(=O)[C@@H](NC(=O)[C@H](CC(=O)O)NC(=O)[C@H](CO)NC(=O)[C@@H](NC(=O)[C@](C)(Cc1ccccc1)NC(=O)[C@H](CO)NC(=O)CNC(=O)[C@H](Cc1c[nH]cn1)NC(=O)C(C)(C)NC(=O)[C@@H](N)Cc1c[nH]cn1)[C@@H](C)O)C(C)C)C(C)C)C(=O)N[C@@H](C)C(=O)N[C@@H](CC(N)=O)C(=O)N[C@H](C(N)=O)[C@@H](C)O` [Peptide 375] (H-H[Aib]HGS[αMeF]TSDVSK[αMeF]LDSRAAQD[αMeF]VK([AEEA-AEEA-γGlu-γGlu-C20 diacid])[Aib]IANT-NH2), the “% Relative Potency Ratio” value [2] was 1.4 and the “24 hr % Vehicle Food Intake” value (Male C57Bl/6 mice; dose 10 nmol/kg) was 66.0%.

With H[Aib]HGS[αMeF]TSDVSK[αMeF]LDSRAAKD[αMeF]VQWIANT-NH2 (not fully specified (residue 20); also: X13: αMePhe or Y (table)) [Peptide 289] the “WT % glucose change 120 min” value [3] was -16.1 % glucose change at 120 min, WT mice, 30 nmol/kg.

B1: Peptide 357 (peptide)
peptide: HXHGSXTSDVSKXLDSQAAQDFVXWIANT
modifications: Aib at 2; αMePhe at 6, 13; Lys 24 acylated K(γE-γE-(PEG)2-γE-γE-C20diacid)24; C-terminal amide
For B1, the “hGluc-R EC50 (pM)” value (human glucagon receptor) was 550 pM and the “hGLP-1R EC50 (pM)” value (human GLP-1 receptor [4]) was 917 pM.

HSQGS[αMeF]TSDVSKK([(PEG)2-(PEG)2-γGlu-γGlu-Palmitoyl])LDS[β‑dimethylArg]AAQD[αMeF]VE[Aib]LANT-NH2 [Peptide 399] was tested, and the “WT % glucose change 120 min” value [3] was -45 % glucose change at 120 min, WT mice, 30 nmol/kg.

For H[Aib]QGS[αMeF]TSDVSKILDSK([(PEG)2-(PEG)2-γGlu-γGlu-Myristoyl])AAQD[αMeF]VQ[Aib]IINT-NH2 [Peptide 126], the “WT % glucose change 120 min” value [3] was -46.2 % glucose change at 120 min, WT mice, 30 nmol/kg.

B2: Peptide 382 (peptide)
peptide: H[Aib]HGS[αMeF]TSDVSK[αMeF]LDSR[Aib]AQDFVK([AEEA-AEEA-γGlu-γGlu-C18 diacid])SIANTGG-NH2
modifications: N-terminus assumed
SMILES: CC[C@H](C)[C@H](NC(=O)[C@H](CO)NC(=O)[C@H](CCCCNC(=O)COCCOCCNC(=O)COCCOCCNC(=O)CC[C@H](NC(=O)CC[C@H](NC(=O)CCCCCCCCCCCCCCCCC(=O)O)C(=O)O)C(=O)O)NC(=O)[C@@H](NC(=O)[C@H](Cc1ccccc1)NC(=O)[C@H](CC(=O)O)NC(=O)[C@H](CCC(N)=O)NC(=O)[C@H](C)NC(=O)C(C)(C)NC(=O)[C@H](CCCNC(=N)N)NC(=O)[C@H](CO)NC(=O)[C@H](CC(=O)O)NC(=O)[C@H](CC(C)C)NC(=O)[C@](C)(Cc1ccccc1)NC(=O)[C@H](CCCCN)NC(=O)[C@H](CO)NC(=O)[C@@H](NC(=O)[C@H](CC(=O)O)NC(=O)[C@H](CO)NC(=O)[C@@H](NC(=O)[C@](C)(Cc1ccccc1)NC(=O)[C@H](CO)NC(=O)CNC(=O)[C@H](Cc1c[nH]cn1)NC(=O)C(C)(C)NC(=O)[C@@H](N)Cc1c[nH]cn1)[C@@H](C)O)C(C)C)C(C)C)C(=O)N[C@@H](C)C(=O)N[C@@H](CC(N)=O)C(=O)N[C@H](C(=O)NCC(=O)NCC(N)=O)[C@@H](C)O
In the case of B2, the “hGluc-R EC50 (pM)” value (human glucagon receptor) is reported as 329 pM and the “hGLP-1R EC50 (pM)” value (human GLP-1 receptor [4]) is reported as 56 pM.

For H[Aib]HGS[αMeF]TSDK([AEEA-AEEA-γGlu-C18 diacid])SK[αMeF]LDSRAAQD[αMeF]VQ[Aib]IANT (not fully specified (C-terminus)) [Peptide 393 of Table 9], the “hGLP-1R EC50 (pM)” value (human GLP-1 receptor [5]) was 0.458 pM.

In the case of H[Aib]HGS[αMeF]TSDVSK[αMeF]LDSRAAQD[αMeF]VK([AEEA-AEEA-γGlu-C18 diacid])SIANT-NH2 (not fully specified) [Peptide 379], the “hGluc-R EC50 (pM)” value (human glucagon receptor) is reported as 85.7 pM and the “hGLP-1R EC50 (pM)” value (human GLP-1 receptor [4]) is reported as 71.8 pM.

HSQGS[αMeF]TSDVSK[Dip]LDSK([PEG2′-PEG2′-γGlu-γGlu-Myristoyl])AAQD[αMeF]VE[Aib]IINT-NH2 [Peptide 63] was tested, and the “WT % glucose change 120 min” value [3] was -26.4 % glucose change at 120 min, WT mice, 10 nmol/kg.

In the case of H[Aib]HGS[αMeF]TSDVSK[αMeF]LDSQAAQD[αMeF]VK([AEEA-AEEA-γGlu-γGlu-C20 diacid])[Aib]IANT-NH2 [Peptide 384], the “hGluc-R EC50 (pM)” value (human glucagon receptor) is reported as 1240 pM and the “hGLP-1R EC50 (pM)” value (human GLP-1 receptor [4]) is reported as 797 pM.
